Assay [1] concerns a wide range of different PDZ domains. Particulars: cited from earlier work.
For assay [2], the target named is T1, Human Scribble (SCRIB) PDZ3 domain (1002-1094) (human, UniProt Q14160 1002-1094).
T1 sequence (looked up): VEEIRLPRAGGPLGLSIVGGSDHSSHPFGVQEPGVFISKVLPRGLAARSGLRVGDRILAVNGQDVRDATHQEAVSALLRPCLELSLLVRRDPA
The experiment in a line: ITC. The conditions noted are these: both partners purified.

Here are results for two molecules from PMC9317960 (Biochemical Journal, 2022).

One may read the Kd as the constant that tells how readily two partners part at equilibrium. As a reminder, the stoichiometry N is the number of molecules, sites or subunits per partner or assembly.

As to “RSWFETWV [Superpeptide, used as a positive control]”, in assay [1], the “affinity towards PDZ domains, in words” value is on record as “affinity towards a wide range of different PDZ domains”.

In the case of LRLESSII [TBEV NS5_CTN peptide (C-terminal PBM of NS5)], in assay [2], the affinity, expressed as Kd, was 18.4 µM; the dH was -1.1 kcal/mol; the “stoichiometry N” value was determined as 1.
